Assays:
[1] = test system: MS2 coat protein; experiment: apparent KD of MS2 coat protein; higher = weaker reporter binding; conditions: Eterna round: R101
Description: (§1)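 RNA-MaP: designed FMN/MS2 RNA switches (84 nt design region) are transcribed on-chip within common flanks and titrated with SNAP-549-labelled MS2 coat protein (about 1-3000 nM) in 100 mM Tris pH 7.5, 80 mM KCl, 4 mM MgCl2, without or with 200 uM FMN. Median apparent KD per design; activation ratio = KD,OFF / KD,ON.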

[2] = test system: MS2 coat protein; experiment: apparent KD of MS2 coat protein; designed switch direction (-1 OFF switch, 1 ON switch): -1; higher = weaker reporter binding; conditions: Eterna round: R98
Description: as §1

[3] = test system: MS2 coat protein; experiment: apparent KD of MS2 coat protein; designed switch direction (-1 OFF switch, 1 ON switch): 1; higher = weaker reporter binding; conditions: Eterna round: R98
Description: as §1

| Sequence | apparent KD of MS2 coat protein ([1]; input ligand: FMN 200 uM) | apparent KD of MS2 coat protein ([1]; input ligand: none) | apparent KD of MS2 coat protein ([3]; input ligand: FMN 200 uM) | apparent KD of MS2 coat protein ([3]; input ligand: none) | also measured |
| --- | --- | --- | --- | --- | --- |
| AAAGAUUUUCAAGGAUAUGACUCCGAAACGGAGUCAGAAGGUGAGGAUCACCCACCUAGCUCAGCGUCGAAAGACGCUGAGCAA [#SharedSequence ExNG1 - 27] (puzzle (switch architecture): Exclusion NG 1) | 0.103 µM | 0.0135 µM |  |  |  |
| AAAUAAAUCGAAGGAUAUGACCCUCGAGGUGACUAAAAGUCACCUCGAGGGUCAGAAGGUCGAGGAUCACCCGAUCUAAAUAAA [#SharedSequence SLExNG1: 2-1] (puzzle (switch architecture): Small Loop Exclusion NG 1) | 0.259 µM | 0.0162 µM |  |  |  |
| AAUAAUCUUUAAGGAUAUGACUCCGAAACGGAGUCAGAAGGUGAGGAUCACCCAUCUAGCUCAGGGUCGAAAGACCCUGAGCAA [#SharedSequence - ExNG1-11] (puzzle (switch architecture): Exclusion NG 1) | 0.101 µM | 0.0496 µM |  |  |  |
| ACAGGUCGUGAGAAGGCGUGUGGCACCGUCGAAAGACGGUGCAAUUAAAAUCUUCGAGGAUCACCCGAGGAUAUCACGACCUGA [#SharedSequence - IExNG2: 19] (puzzle (switch architecture): Inverted Exclusion NG 2) | 0.0322 µM | 0.0122 µM |  |  |  |
| AGACCUGCUCAGAAGGCGGGUGCGAGGCUGGAAACAGCCUCGAAUUAAAAUCUUCGAGGAUCACCCGAGGAUAUGAGCAGGUCA [#SharedSequence - IExNG2: 16] (puzzle (switch architecture): Inverted Exclusion NG 2) | 0.019 µM | 0.0542 µM |  |  |  |
| AGAGCCUCGUGAGGAUAUACAUGAGGAUCACCCAUGUAAUAGGAUGAACGGAGGAAACUCCGAAUGUAGAAGGCACGAGGCUCA [Exclusion NG 2/11-B1] |  |  |  |  | apparent KD of MS2 coat protein ([2]; input ligand: FMN 200 uM): 0.686 µM; apparent KD of MS2 coat protein ([2]; input ligand: none): 0.0745 µM |
| AUCAGCUCGUCAGGAUAUACGUCACUGCGUCAGCAGUGUGGUAAGAUCACAUGAGGAUCACCCAUGUAGAAGGGACGAGCUGAU [#MiniMS2Turnoff - Ex NG2 #82] (puzzle (switch architecture): Exclusion NG 2) | 0.273 µM | 0.0137 µM |  |  |  |
| CGCUCGCCGAGAGGAUAUGCAUUGGUGGGCGGUCCUGAACAUGAGGAUCACCCAUGUAUCAGUAAGCAGAAGGCUUGGUAGACG [Usesreed] |  |  |  |  | apparent KD of MS2 coat protein ([2]; input ligand: FMN 200 uM): 0.0165 µM; apparent KD of MS2 coat protein ([2]; input ligand: none): 0.0201 µM |
| CGGGAUACGAAGGGCGAAAGCCCACAUGAGGAUCACCCAUGUAGAAGGCGGGCCGCAACGCGGCCCGAGGAUAUACAGUAUCCA [#my 5th design] (puzzle (switch architecture): Inverted Exclusion NG 3) | 0.0105 µM | 0.00572 µM |  |  |  |
| GCCAUCGUAUGAGGAUAUGGCACCGAAACGGUGCCAGAAGGCAUGUCAAUAGACAUGAGGAUCACCCAUGUAUUAUCGAUGGCA [MatMod 1 - Jieux - Same State NG 1] |  |  | 0.0469 µM | 0.469 µM |  |
| GCUGUCGCGUGAGGAUAUGGUCGGCAGUGCUGACCAGAAGGCAUGUCGAUAGACAUGAGGAUCACCCAUGUGGUUAGGGCGGCU [salish99_SSNG1_R02_015] |  |  | 0.464 µM | 0.491 µM |  |
| GCUUGCGACGCAGGAUAUGGGUGCCUAAACACGAGGAUCACCCGUGUACAGGAAGCUAAAUGCUCUCAGAAGGGCGUCGCAGGC [United States 9 - Jieux - Same State NG 2] |  |  | 0.0175 µM | 0.0467 µM |  |
| GGAUCGCUUGGAGGAUAUCCAACUAUCCUAGUUGGAGAAGGCCAAGCUACAGAGCUAAGCUUGGAAGUCACUUCGGAUCCACAC [pwkr ssNG1 F9.4.4] |  |  | 0.0392 µM | 0.0217 µM |  |
| GGUCGACCUCAAGGAUAUGGACUGCAAAGCAGUCCAGAAGGUGAGGAUCACCCAUCUACGGUCAGGAAACUGACCGAUCGACCA [#SharedSequence - ExNG1-6] (puzzle (switch architecture): Exclusion NG 1) | 0.914 µM | 0.308 µM |  |  |  |
| GGUGUUAACACAGGAUAUCUGCGUAAACAGCGCGGAGAAGGGUGGGUGACCAAGGACACAUGAGGAUCACCCAUGUACCCUUAA [Timadier] (puzzle (switch architecture): Same State NG 1) | 0.184 µM | 0.0727 µM |  |  |  |
| GGUUGACGACAAUUACAUGAGGAUCACCCAUGUUGUGGGAUGCAGGAUAUGUGGUAUAUUAAUUAACAGAAGGGCAAUAAUUUU [JR_SSNG3_Sub062] |  |  | 0.051 µM | 0.0338 µM |  |
| GGUUGUUACGCAGGAUAUUGCCAACAGGCAGUAGGAUAUCCGAAAGGAGAAGGACCGCCAACAGGCGAGAAGGGCGGGUUAACC [pwkr exNG2 2xF7 2FMN.10.4] |  |  |  |  | apparent KD of MS2 coat protein ([2]; input ligand: FMN 200 uM): 0.0483 µM; apparent KD of MS2 coat protein ([2]; input ligand: none): 0.0354 µM |
| GUAGCAUACCGAGGAUAUUCAUACCGGAAACGGACAUGAGGAUCACCCAUGUAAAUUCUAAAUUGGGAGAAGGCGGAAUGCUAC [Xeonanis 75 6] |  |  | 0.0466 µM | 0.41 µM |  |
| GUCACGGUUAAUUCCGUGACGCGCAAACCUUGAGGAUCACCCAAGGAUAUCGACGUCAAUGACGUCGAGAAGGUGGUUGAGCGC [#SharedSequence] (puzzle (switch architecture): Exclusion NG 3) | 0.0956 µM |  |  |  |  |
| GUCAGCUCGUGAGGAUAUACAUCACUGCUUCGGCAGUGUAUUAAGAUAACAUGAGGAUCACCCAUGUAGAAGGCACGAGCUGAU [#MS2NeighbourBaseDeletion - ENG2/2-A2] (puzzle (switch architecture): Exclusion NG 2) | 0.0085 µM | 0.00549 µM |  |  |  |
| UAAAUAAAUCCUAGAGGAUCACCCUAGGAUAUCACCGUCGAGGUGCCAUAAUGGCACCUCGACGGUGAGAAGGAGGGUAAUAAA [#SharedSequence - SLExNG3: 1-1] (puzzle (switch architecture): Small Loop Exclusion NG 3) | 0.0293 µM | 0.0138 µM |  |  |  |
| UAAAUAAAUCCUAGAGGAUCACCCUAGGAUAUGAGGCUGCACCUCGGAUAAUCCGAGGUGCAGCCUCAGAAGGAGGAAAAUAAA [#SharedSequence - SLExNG3: 4-2] (puzzle (switch architecture): Small Loop Exclusion NG 3) | 0.00771 µM | 0.00816 µM |  |  |  |
| UAAAUAAAUCCUAGAGGAUCACCCUAGGAUAUGAGGCUGCACCUCGGAUAAUCCGAGGUGCAGCCUCAGAAGGAGGUUGAUAAA [#SharedSequence - SLExNG3: 6-2] (puzzle (switch architecture): Small Loop Exclusion NG 3) | 0.0118 µM | 0.0105 µM |  |  |  |
| UAGAUAUGGUGAGGAUAUGCAAAGGAUCACCUUGUAGAAGGCAUCAGGGUAGAAGGUGCAAGGAUCACCUGUAAGGAUAUAUCC [pwkr2 ssNG1 DX.32] |  |  | 0.448 µM | 1.67 µM |  |
| UAUAUUUAGGCAGGAUAUACAUGUAUAUAUAAUUUUUUAUAUAUUAUUACAUGAGGAUCACCCAUGUAGAAGGGCCUUAUUAUA [LRO040_Exclusion NG 2] |  |  |  |  | apparent KD of MS2 coat protein ([2]; input ligand: FMN 200 uM): 0.0629 µM; apparent KD of MS2 coat protein ([2]; input ligand: none): 0.0512 µM |
| UCACUCACGUCAGGAUAUGGAUCGGAAAACGAUCCAGAAGGGACCUGCAAACUUGAGGAUCACCCAGGUUCCAAUAACGAGUGA [SameSame 12 - Jieux - Same State NG 1] |  |  | 0.194 µM | 0.307 µM |  |
| UCCGCUAUCGCAGGAUAUUACAUGGGAAAGAAUACAUGAGGAUCACCCAUGUAAAAGAUCAUAAAUAAGAAGGGCGAUAGCGGA [Lame State 8 - Jieux - Same State NG 2] |  |  | 0.123 µM | 0.654 µM |  |
| UGUUGUUACGCAGGAUAUUGCCAACAGGCGGUAGGAUAUCCGAAAGGAGAAGGAUCGCCAACAGGCGAGAAGGGCGGGUUAACA [pwkr exNG2 2xF7 2FMN.10.3] |  |  |  |  | apparent KD of MS2 coat protein ([2]; input ligand: FMN 200 uM): 0.0267 µM; apparent KD of MS2 coat protein ([2]; input ligand: none): 0.0213 µM |
| UUCAAAGGGUGAGGAUAUGCACAGGAUCACCGUGUAGAAGGCAUCAGGUAGAAGGUGCAGAGGAUCACCCUGUAAGGAUAUAUC [pwkr2 ssNG1 DX.15] |  |  | 0.719 µM | 1.02 µM |  |
| UUUUUUUUUUUUUACGCUUUGCGACGAGAAGGUACACAUGAGGAUCACCCAUGUCGAUUGGGAGGUAAGGAUAUUGGAUUGCGU [Inverted Small Loop Same State NG 3 Solution, Uracil-heavy] (puzzle (switch architecture): Inverted Small Loop Same State NG 3) | 0.000483 µM | 0.0184 µM |  |  |  |

Source: the supplement of paper PMC9170038
